Results: patent US20250257130A1 (NONA BIOSCIENCES SUZHOU, published 2025)
Substitutions are numbered along the chain they refer to.

Experiments:
[1] = target: T1, human ROR1 on cells (HEK293T-hROR1, PANC-1, A549) (human, UniProt Q01973 30-937); experiment: flow cytometry on PANC-1 cells, MFI (Median-APC) [top panel]
T1 construct: whole, on cells; one molecule for the three cell lines; also called huROR1; cell surface ROR1

[2] = target: T1, human ROR1 on cells (HEK293T-hROR1, …); experiment: flow cytometry, PANC-1 cells
Description: (§1) In brief, anti-ROR1 antibodies were serially diluted in staining buffer (PBS containing 2% FBS). Antibody solution was incubated with 1×10⁵ cells at 4° C. for 1 hour. […] After 1-hour incubation at 4° C., cells were washed twice with staining buffer and subjected to flow cytometry. PR000374 (Bench marker 1) and non-relevant IgG isotype control (Crownbio) were used as positive and negative controls, respectively.
Binding activity of the variants to PANC-1 cells were tested using the same method described in example 5.1. The results were shown in FIGS. 7-8 and Table 11 and Table 12.

[3] = target: T1, human ROR1 on cells (HEK293T-hROR1, …); experiment: flow cytometry on PANC-1 cells, MFI (Median-APC) [middle panel, letter not given]
[4] = target: T1, human ROR1 on cells (HEK293T-hROR1, …); experiment: flow cytometry on PANC-1 cells, MFI (Median-APC) [bottom panel, letter not given]
[5] = target: T2, Human ROR1-ECD-his (Acro Biosystems RO1-H522y) (human, UniProt Q01973 30-406); experiment: ELISA, coated hu-ROR1-ECD-his
T2 construct: extracellular domain; bought protein; also called hROR1-ECD-his; hu-ROR1-ECD-his
T2 sequence (Q01973 30-406): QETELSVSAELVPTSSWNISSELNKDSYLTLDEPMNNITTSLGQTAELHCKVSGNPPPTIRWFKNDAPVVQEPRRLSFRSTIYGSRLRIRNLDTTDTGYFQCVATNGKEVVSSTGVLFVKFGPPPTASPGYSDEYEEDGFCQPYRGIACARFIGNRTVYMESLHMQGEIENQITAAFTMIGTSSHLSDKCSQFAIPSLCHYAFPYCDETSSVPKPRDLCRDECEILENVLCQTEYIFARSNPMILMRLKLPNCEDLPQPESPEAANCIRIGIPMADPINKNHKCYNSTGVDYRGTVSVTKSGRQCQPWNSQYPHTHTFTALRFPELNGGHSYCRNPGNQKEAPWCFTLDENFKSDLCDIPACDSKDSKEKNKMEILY
Description: (§2) Binding of recombinant anti-ROR1 antibodies to hu-ROR1-ECD-his was tested by ELISA. In brief, 1 μg/mL hu-ROR1-ECD-his was added to the 96-well plate, 100 μL each well, incubated at 4° C. overnight, washing the plates with 1×PBST 3 times, 300 ul/well, blocking the plates with 2% BSA in 1×PBST, 200 ul/well at 37° C. for 1 hour, anti-ROR1 antibodies were serially diluted in staining buffer (PBS containing 2% BSA). Antibody solution was added to the plate and incubates at 37° C. for 1 hour, washing the plates with 1×PBST 3 times, 300 ul/well, adding secondary antibody 100 ul/well and incubate at 37° C. for 1 hour, washing the plates with 1×PBST 3 times, 300 ul/well and then add 100 ul/well TMB for about 5 min, stop the reaction by adding 100 ul/well 2M H₂SO₄, read the plates with Molecular device spectra max plus384 at 450 nm and 570 nm.

[6] = target: T2, Human ROR1-ECD-his (Acro Biosystems …); experiment: ELISA, plate coated with hu-ROR1-his at 1 µg/mL
Description: as §2

[7] = target: T3, cynomolgus ROR1 on CHO-K1-cynoROR1 cells (cynomolgus monkey, UniProt A0A2K5WTX7 30-937); experiment: flow cytometry on CHOK1-cynoROR1 cells, MFI (Mean) [bottom panel, letter not given]
T3 construct: whole, on cells
Description: (§3) Binding of recombinant anti-ROR1 antibodies to human or cynomolgus ROR1-overexpressing cells was tested by flow cytometry. In this example, ROR1-expressing cell lines are HEK293T cell lines that had been transfected to express human ROR1 on the surface (HEK293T-hu ROR1, KYINNO BIOTECHNOLOGY CO., LTD, Catalog #KC-1018), CHO-K1 cell lines that had been transfected to express cynomolgus ROR1 (CHOK1-cyno ROR1), PANC-1 (ATCC, catalog: CRL-1469) or A549 cell lines (Shanghai Institute of Biochemistry and Cell Biology, Chinese Academy of Sciences).
as §1

[8] = target: T3, cynomolgus ROR1 on CHO-K1-cynoROR1 cells; experiment: flow cytometry, CHO-K1-cynoROR1 cells
Description: as §1

[9] = target: T1, human ROR1 on cells (HEK293T-hROR1, …); experiment: flow cytometry on HEK293T-hROR1 cells, MFI (Mean)
Description: as §3, §1

[10] = target: T2, Human ROR1-ECD-his (Acro Biosystems …); experiment: BLI, ROR1-His on HIS1K sensor, antibody in solution
Description: In the example, binding kinetics of anti-ROR1 antibodies to soluble ROR1 protein were analyzed by using Bio-Layer Interferometry (BLI) analysis on Fortebio Octet Red384 instrument (Fortebio).
In BLI analysis, recombinant anti-ROR1 antibodies was serially diluted with 10× kinetics buffer (Fortebio). Human ROR1-His proteins were diluted to 20 nM. Then the diluted antibodies, ROR1 proteins and regeneration buffer (10 mM glycine HCl pH 1.5) were added to 96-well plates (Greiner). Rate constants for association and dissociation were measured using HIS1K sensor (Fortebio). The sensor surface was regenerated after each binding experiment with regeneration buffer. The traces were processed using Octet Data Analysis Software (version 11.0, Pall ForteBio, CA, USA).

[11] = target: T1, human ROR1 on cells (HEK293T-hROR1, …); experiment: flow cytometry, PANC-1 cells; remark: listed apart in the source
Description: as §1

[12] = target: T1, human ROR1 on cells (HEK293T-hROR1, …); experiment: flow cytometry, A549 cells
Description: as §1

[13] = target: T1, human ROR1 on cells (HEK293T-hROR1, …); experiment: flow cytometry, HEK293T-hROR1 cells
Description: as §1

[14] = target: T4, hu-ROR2-ECD-his (Acrobiosystems RO2-H52E5) (human, UniProt Q01974 34-403); experiment: ELISA, plate coated with hu-ROR2-his at 1 µg/mL
T4 construct: extracellular domain; bought protein; also called Human ROR2 his-tagged protein; Human ROR2, His Tag
T4 sequence (Q01974 34-403): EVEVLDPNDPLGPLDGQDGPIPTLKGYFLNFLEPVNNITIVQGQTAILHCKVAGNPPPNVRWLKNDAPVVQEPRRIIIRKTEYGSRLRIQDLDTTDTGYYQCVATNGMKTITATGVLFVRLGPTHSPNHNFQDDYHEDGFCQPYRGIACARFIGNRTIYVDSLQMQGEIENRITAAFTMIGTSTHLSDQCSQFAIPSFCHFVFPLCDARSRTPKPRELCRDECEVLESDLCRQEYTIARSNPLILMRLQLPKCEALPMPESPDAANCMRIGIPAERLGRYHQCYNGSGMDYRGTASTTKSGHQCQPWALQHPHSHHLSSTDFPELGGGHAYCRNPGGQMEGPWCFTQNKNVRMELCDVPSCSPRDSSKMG
Description: as §2, with “1” for “Binding of recombinant anti-ROR1 antibodies to hu-ROR1-ECD-his was tested by ELISA. In brief, 1”, “hu-ROR2-ECD-his (Acrobiocystems, RO2-H52E5)” for “hu-ROR1-ECD-his”

[15] = target: T3, cynomolgus ROR1 on CHO-K1-cynoROR1 cells; experiment: flow cytometry, CHO-K1-cynoROR1 cells; remark: listed apart in the source
Description: as §3, §1

[16] = target: T1, human ROR1 on cells (HEK293T-hROR1, …); experiment: flow cytometry on PANC-1 cells, MFI (FITC-A Median)
Description: as §3, §1

T1 sequence (Q01973 30-937): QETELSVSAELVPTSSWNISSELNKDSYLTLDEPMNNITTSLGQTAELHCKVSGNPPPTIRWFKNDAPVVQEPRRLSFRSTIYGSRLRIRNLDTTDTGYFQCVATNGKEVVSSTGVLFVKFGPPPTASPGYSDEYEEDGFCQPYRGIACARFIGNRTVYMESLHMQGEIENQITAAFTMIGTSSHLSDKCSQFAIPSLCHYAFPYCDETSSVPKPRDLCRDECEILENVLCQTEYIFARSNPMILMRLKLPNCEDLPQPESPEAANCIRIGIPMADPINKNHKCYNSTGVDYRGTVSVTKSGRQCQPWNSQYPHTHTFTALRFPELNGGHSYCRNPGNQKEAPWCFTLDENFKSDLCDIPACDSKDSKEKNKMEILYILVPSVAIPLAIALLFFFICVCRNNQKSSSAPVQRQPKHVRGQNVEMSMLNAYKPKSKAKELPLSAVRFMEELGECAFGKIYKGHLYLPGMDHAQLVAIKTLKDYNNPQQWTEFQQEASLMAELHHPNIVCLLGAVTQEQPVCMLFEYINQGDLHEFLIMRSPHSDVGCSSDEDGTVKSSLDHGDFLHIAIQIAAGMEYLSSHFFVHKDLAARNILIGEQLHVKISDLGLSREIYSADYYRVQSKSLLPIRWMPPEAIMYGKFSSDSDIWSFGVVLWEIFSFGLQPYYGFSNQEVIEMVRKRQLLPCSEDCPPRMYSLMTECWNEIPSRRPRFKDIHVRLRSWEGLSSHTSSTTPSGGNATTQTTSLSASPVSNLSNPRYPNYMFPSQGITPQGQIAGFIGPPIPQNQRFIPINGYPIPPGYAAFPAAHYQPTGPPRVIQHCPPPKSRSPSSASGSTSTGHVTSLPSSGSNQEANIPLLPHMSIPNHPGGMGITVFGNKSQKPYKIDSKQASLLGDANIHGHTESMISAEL

B1: PR007411 (antibody, V domains shown)
VH: EVQLVESGGGLVKPGGSLRLSCAASGFTFSDFYMSWIRQAPGKGLEWISYISSSGSTIHYADSVKGRFTISRDNAKNSLYLQMNSLRAEDTAIYYCARDMPSSSSDWVDLQFDYWGQGTLVTVSS
notes: bivalent form (HCAb) variant of PR005340, no light chain
Q: Which “EC50 (read off the curve)” value [1] does the source give for B1 here?
A: ~0.7 nM

Q: What about the TOP [2] of the same binder?
A: 81400

B2: PR007416 (antibody, V domains shown)
VH: B1 VH with S52N, S53T, S54R, T57P, H59G, M100I
notes: as for B1
Q: How did the “EC50 (read off the curve)” value [3] turn out when B2 was run?
A: ~0.7 nM

Q: What about the TOP [2] of the same binder?
A: 87600

B3: PR007423 (antibody, V domains shown)
VH: B1 VH with F32Y, S52D, S56R, T57P, I58L, H59A, M100I
notes: as for B1
Q: B3 was tested. Which TOP [2] did it give?
A: 74500

Q: And the “EC50 (read off the curve)” value [4]?
A: ~0.4 nM

B4: PR007412 (antibody, V domains shown)
VH: B1 VH with T57W, D109S
notes: as for B1
Q: How did the “EC50 (read off the curve)” value [1] turn out when B4 was run?
A: ~0.5 nM

Q: What about the TOP [2] of the same binder?
A: 77200

B5: PR007419 (antibody, V domains shown)
VH: B1 VH with S52N, S53T, S54R, T57P, H59G, D109S
notes: as for B1
Q: B5 was tested. Which TOP [2] did it give?
A: 75700

Q: And the “EC50 (read off the curve)” value [4]?
A: ~0.8 nM

B6: PR007420 (antibody, V domains shown)
VH: B1 VH with I58R, H59Y, D109S
notes: as for B1
Q: Which results are given for B6?
A: TOP [2]: 79500; EC50 (read off the curve) [4]: ~0.7 nM

B7: PR007422 (antibody, V domains shown)
VH: B1 VH with S52D, S56R, T57P, I58L, H59A, M100I, D109S
notes: as for B1
Q: With B7 as the binder, how does the TOP [2] read?
A: 73600

Q: What about the “EC50 (read off the curve)” value [4] of the same binder?
A: ~0.6 nM

B8: PR007413 (antibody, V domains shown)
VH: B1 VH with S52N, S53T, S54R, T57P, H59G
notes: as for B1
Q: For B8, which “EC50 (read off the curve)” value [3] is on record?
A: ~0.6 nM

Q: And the TOP [2]?
A: 89800

B9: PR007409 (antibody, V domains shown)
VH: B1 VH with T57W, M100I
notes: as for B1
Q: B9 was tested. Which “EC50 (read off the curve)” value [1] did it give?
A: ~0.8 nM

Q: What about the TOP [2] of the same binder?
A: 87400

B10: PR007414 (antibody, V domains shown)
VH: B1 VH with I58R, H59Y
notes: as for B1
Q: How did the “EC50 (read off the curve)” value [3] turn out when B10 was run?
A: ~0.5 nM

Q: What about the TOP [2] of the same binder?
A: 88900

B11: PR007408 (antibody, V domains shown)
VH: B1 VH with T57Y
notes: as for B1
Q: With B11 as the binder, how does the “EC50 (read off the curve)” value [1] read?
A: ~0.4 nM

Q: What about the TOP [2] of the same binder?
A: 87000

B12: PR007415 (antibody, V domains shown)
VH: B1 VH with S52D, S56R, T57P, I58L, H59A
notes: as for B1
Q: For B12, which “EC50 (read off the curve)” value [3] is on record?
A: ~0.4 nM

Q: What about the TOP [2] of the same binder?
A: 82800

B13: PR007410 (antibody, V domains shown)
VH: B1 VH with T57Y, M100I
notes: as for B1
Q: Which results are given for B13?
A: EC50 (read off the curve) [1]: ~0.8 nM; TOP [2]: 80300

B14: PR007418 (antibody, V domains shown)
VH: B1 VH with S52D, S56R, T57P, I58L, H59A, M100I
notes: as for B1
Q: For B14, which “EC50 (read off the curve)” value [3] is on record?
A: ~0.4 nM

Q: And the TOP [2]?
A: 81300

B15: PR303201 (antibody, human IgG1, V domains shown)
VH: EVQLLESGGGLVQPGGSLRLSCAASGFTFSGNAMSWVRQAPGKGLEWVSAISGSGDKTYYAASVKGRFTISRDNSNNTVYLQMNSLRAEDTAVYYCEKGAFRTTMDYWGQGTLVTVSS
notes: HCAb (heavy chain-only, human IgG1 Fc), no light chain
Q: Which results are given for B15?
A: EC50 [5]: 0.004 µg/mL; EC50 (read off the curve) [6]: ~0.004 µg/mL; EC50 (read off the curve) [7]: ~0.06 µg/mL; EC50 [8]: 0.057 µg/mL; MAX(MFI) [8]: 1.07e+07 MFI; EC50 (read off the curve) [9]: ~0.06 µg/mL; Kd [10]: 4.89 nM; koff [10]: 0.00626 s⁻¹; kon [10]: 1.28e+06 M⁻¹ s⁻¹; MAX(MFI) [11]: 935000 MFI; EC50 [12]: 0.08 µg/mL; MAX(MFI) [12]: 1.23e+06 MFI; EC50 [13]: 0.066 µg/mL; MAX(MFI) [13]: 1.55e+07 MFI; binding result [14]: no binding (tested: about 15 µg/ml)

B16: PR303147 (antibody, human IgG1, V domains shown)
VH: EVQLVESGGGLVQPGGSLRLSCAASGFTFSNFWMYWVRQAPGKGLVWVSRINSDGSSTNYADSVKGRFTISRDNAKNTLYLQMNSLRVEDTAVYSCAREGSGWYEDFDYWGQGTLVTVSS
notes: as for B15
Q: With B16 as the binder, how does the EC50 [5] read?
A: 0.023 µg/mL

Q: And the “EC50 (read off the curve)” value [6]?
A: ~0.02 µg/mL

Q: What about the EC50 [8] of the same binder?
A: 1.26 µg/mL

Q: And the “MAX(MFI)” value [8]?
A: 3.67e+06 MFI

Q: What about the “EC50 (read off the curve)” value [9] of the same binder?
A: ~0.3 µg/mL

Q: What about the Kd [10] of the same binder?
A: 11.2 nM

Q: And the koff [10]?
A: 0.0165 s⁻¹

Q: And the kon [10]?
A: 1.47e+06 M⁻¹ s⁻¹

Q: And the EC50 [11]?
A: 7.77 µg/mL

Q: What about the “MAX(MFI)” value [11] of the same binder?
A: 291000 MFI

Q: What about the EC50 [12] of the same binder?
A: 6.46 µg/mL

Q: And the “MAX(MFI)” value [12]?
A: 412000 MFI

Q: And the EC50 [13]?
A: 0.325 µg/mL

Q: What about the “MAX(MFI)” value [13] of the same binder?
A: 1.46e+07 MFI

Q: Does B16 bind [14]?
A: no binding (tested: about 15 µg/ml)

B17: PR005351 (antibody, human IgG1, V domains shown)
VH: QVQLVESGGGLVKPGGSLRLSCAASGFKLSDFQMSWIRQAPGKGLEWVAYIDTNGSTRYYAESVKGRFTLSRDNVKNSLNLQMNGLRAEDTALYYCARIPSYTSSWYEDFDHWGQGTLVTVSS
notes: as for B15
Q: B17 was tested. Which Max [15] did it give?
A: 27500

Q: What about the Max [11] of the same binder?
A: 10900

Q: What about the “EC50 (read off the curve)” value [16] of the same binder?
A: ~20 nM
